Results taken from patent publication US20140206607A1 (INDIANA UNIVERSITY RESEARCH AND TECHNOLOGY, published 2014).
Numbered stars: 1 amine (or outer) side, 2 acyl side, 3 side chain; on linkers, the order of the positions; unused ones are H or OH. Square brackets hold non-standard residues; d marks the D form. Primed or numbered codes have the meaning given here. Side chains are listed from the residue outwards. Ends that are not written are not given here. * marks the point of attachment. 40K‑TE PEG = 40 kDa PEG covalently bound via thioether, formed by reaction of the free thiol of the peptide (Cys side chain) with an iodoacetic-functionalized PEG; 20K‑TE PEG″ = 20 kDa PEG attached via a thioether, formed by reacting the free thiol of the peptide with an iodoacetic-functionalized PEG; 12K‑ME PEG = 12 kDa PEG bound via maleimido-thioether; γGlu = O=C(O)[C@H](CCC(=O)[*:2])N[*:1]; Palmitoyl = CCCCCCCCCCCCCCCC(=O)*; EC16 = not defined here; Aib = CC(C)(N)C(=O)O

T1: GIP receptor (UniProt P48546 22-466)
T1 sequence (looked up): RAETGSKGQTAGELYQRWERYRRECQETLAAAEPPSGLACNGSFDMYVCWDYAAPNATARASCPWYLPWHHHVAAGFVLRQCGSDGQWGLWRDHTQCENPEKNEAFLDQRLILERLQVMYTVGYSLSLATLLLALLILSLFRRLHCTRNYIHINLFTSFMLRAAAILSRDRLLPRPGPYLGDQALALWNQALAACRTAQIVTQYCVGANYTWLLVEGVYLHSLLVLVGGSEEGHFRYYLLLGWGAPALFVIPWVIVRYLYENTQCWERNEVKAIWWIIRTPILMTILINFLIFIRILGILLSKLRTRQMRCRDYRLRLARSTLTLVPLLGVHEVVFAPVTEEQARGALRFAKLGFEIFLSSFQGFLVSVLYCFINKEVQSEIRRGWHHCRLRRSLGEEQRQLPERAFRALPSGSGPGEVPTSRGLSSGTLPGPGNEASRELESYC

B1: peptide of SEQ ID NO: 13 (peptide)
peptide: H[Aib]QGTFTSDYSKYLDEKRA[Aib]EFVC(40K‑TE PEG)WLLDT-NH2
B2: peptide of SEQ ID NO: 16 (peptide)
peptide: H[Aib]QGTFTSDYSKYLDEKRA[Aib]EFVC(40K‑TE PEG)WLLDE-NH2
B3: peptide of SEQ ID NO: 52 (peptide)
peptide: H[Aib]QGTFTSDYSKYLDEK[Aib]AKEFVC(40K‑TE PEG)WLLDT-NH2
B4: peptide of SEQ ID NO: 54 (peptide)
peptide: H[Aib]QGTFTSDYSKYLDEKRA[Aib]DFVC(40K‑TE PEG)WLLDT-NH2
B5: peptide of SEQ ID NO: 55 (peptide)
peptide: H[dS]QGTFTSDK(EDTA amide)SKYLDERAAQDFVQWLLDGGPSSGAPPPS-NH2
B6: peptide of SEQ ID NO: 56 (peptide)
peptide: H[dA]QGTFTSDK([γGlu-Palmitoyl])SKYLDERAAQDFVQWLLDT-NH2
modifications: N-terminus assumed
SMILES: CCCCCCCCCCCCCCCC(=O)N[C@@H](CCC(=O)NCCCC[C@H](NC(=O)[C@H](CC(=O)O)NC(=O)[C@H](CO)NC(=O)[C@@H](NC(=O)[C@H](Cc1ccccc1)NC(=O)[C@@H](NC(=O)CNC(=O)[C@H](CCC(N)=O)NC(=O)[C@@H](C)NC(=O)[C@@H](N)Cc1c[nH]cn1)[C@@H](C)O)[C@@H](C)O)C(=O)N[C@@H](CO)C(=O)N[C@@H](CCCCN)C(=O)N[C@@H](Cc1ccc(O)cc1)C(=O)N[C@@H](CC(C)C)C(=O)N[C@@H](CC(=O)O)C(=O)N[C@@H](CCC(=O)O)C(=O)N[C@@H](CCCNC(=N)N)C(=O)N[C@@H](C)C(=O)N[C@@H](C)C(=O)N[C@@H](CCC(N)=O)C(=O)N[C@@H](CC(=O)O)C(=O)N[C@@H](Cc1ccccc1)C(=O)N[C@H](C(=O)N[C@@H](CCC(N)=O)C(=O)N[C@@H](Cc1c[nH]c2ccccc12)C(=O)N[C@@H](CC(C)C)C(=O)N[C@@H](CC(C)C)C(=O)N[C@@H](CC(=O)O)C(=O)N[C@H](C(N)=O)[C@@H](C)O)C(C)C)C(=O)O
B7: peptide of SEQ ID NO: 58 (peptide)
peptide: H[Aib]QGTFTSDK(Palmitoyl)SKYLDSRRA[Aib]DFVQWLMNT-NH2
modifications: N-terminus assumed
SMILES: CCCCCCCCCCCCCCCC(=O)NCCCC[C@H](NC(=O)[C@H](CC(=O)O)NC(=O)[C@H](CO)NC(=O)[C@@H](NC(=O)[C@H](Cc1ccccc1)NC(=O)[C@@H](NC(=O)CNC(=O)[C@H](CCC(N)=O)NC(=O)C(C)(C)NC(=O)[C@@H](N)Cc1c[nH]cn1)[C@@H](C)O)[C@@H](C)O)C(=O)N[C@@H](CO)C(=O)N[C@@H](CCCCN)C(=O)N[C@@H](Cc1ccc(O)cc1)C(=O)N[C@@H](CC(C)C)C(=O)N[C@@H](CC(=O)O)C(=O)N[C@@H](CO)C(=O)N[C@@H](CCCNC(=N)N)C(=O)N[C@@H](CCCNC(=N)N)C(=O)N[C@@H](C)C(=O)NC(C)(C)C(=O)N[C@@H](CC(=O)O)C(=O)N[C@@H](Cc1ccccc1)C(=O)N[C@H](C(=O)N[C@@H](CCC(N)=O)C(=O)N[C@@H](Cc1c[nH]c2ccccc12)C(=O)N[C@@H](CC(C)C)C(=O)N[C@@H](CCSC)C(=O)N[C@@H](CC(N)=O)C(=O)N[C@H](C(N)=O)[C@@H](C)O)C(C)C
B8: peptide of SEQ ID NO: 59 (peptide)
peptide: H[Aib]QGTFTSDKSKYLDERRA[Aib]DFVQWLMNT-NH2
modifications: not fully specified (residue 10); printed as HaibQGTFTSDK(C16 acyl)SKYLDERRAaibDFVQWLMNT-amide
B9: peptide of SEQ ID NO: 60 (peptide)
peptide: H[Aib]QGTFTSDK([γGlu-Palmitoyl])SKYLD[Aib]RAAQDFVQWLMKTK[dE]-OH
B10: peptide of SEQ ID NO: 61 (peptide)
peptide: HXQGTFTSDKSKYLDERAAQDFVQWLMDT
modifications: Aib at 2; Lys 10 acylated, printed K(γEyEC16); C-terminal amide
B11: peptide of SEQ ID NO: 19 (peptide)
peptide: H[dS]QGTFTSDK([γGlu-EC16])SKYLDERAAQDFVQWLLDGRG-NH2
modifications: reading uncertain; also: printed as HsQGTFTSDK(gammaGlu-EC16)SKYLDERAAQDFVQWLLDGRG-amide
B12: peptide of SEQ ID NO: 38 (peptide)
peptide: H[Aib]QGTFTSDYSKYLD[Aib]KRA[Aib]EFVC(40K‑TE PEG)WLLDT-NH2
B13: peptide of SEQ ID NO: 39 (peptide)
peptide: H[Aib]QGTFTSDYSKYLD[Aib]KRAKEFVQWLLC(40K‑TE PEG)T-OH
B14: peptide of SEQ ID NO: 40 (peptide)
peptide: H[Aib]QGTFTSDYSKYLD[Aib]KRAKEFVQWLLDTC(40K‑TE PEG)-NH2
B15: peptide of SEQ ID NO: 41 (peptide)
peptide: H[Aib]QGTFTSDYSKYLDEKRA[Aib]EFVC(40K‑TE PEG)WLL[Aib]T-NH2
B16: peptide of SEQ ID NO: 42 (peptide)
peptide: H[Aib]QGTFTSDYSKYLDEKRA[Aib]EFV[Aib]WLLC(40K‑TE PEG)T-NH2
B17: peptide of SEQ ID NO: 43 (peptide)
peptide: H[dS]QGTFTSDK([γGlu-Palmitoyl])SKYLDEQAAKEFIC(12K‑ME PEG)WLLDT-NH2
B18: peptide of SEQ ID NO: 44 (peptide)
peptide: H[dS]QGTFTSDK([γGlu-Palmitoyl])SKYLDEQAAKEFIC(20K‑TE PEG″)WLLDT-NH2
B19: peptide of SEQ ID NO: 45 (peptide)
peptide: H[Aib]QGTFTSDYSKYLDEKRA[Aib]EFVC(40K‑TE PEG)WLLDT-OH
B20: peptide of SEQ ID NO: 46 (peptide)
peptide: H[Aib]QGTFTSDYSKYLD[Aib]KRA[Aib]EFVC(40K‑TE PEG)WLLDGGPSSGAPPPS-NH2
B21: peptide of SEQ ID NO: 47 (peptide)
peptide: H[Aib]QGTFTSDYSKYLDEKRA[Aib]EFVC(40K‑TE PEG)WLLDGGPSSGAPPPS-NH2
B22: peptide of SEQ ID NO: 48 (peptide)
peptide: H[dS]QGTFTSDK([γGlu-adamantylacetyl])SKYLDERAAQDFVQWLLDT-NH2
B23: peptide of SEQ ID NO: 49 (peptide)
peptide: H[dS]QGTFTSDK(benzoylpropionyl)SKYLDERAAQDFVQWLLDGGPSSGAPPPS-NH2
B24: peptide of SEQ ID NO: 51 (peptide)
peptide: H[Aib]QGTFTSDYSKYLDEKRA[Aib]EFVC(40K‑TE PEG)WLL[Aib]GGPSSGAPPPS-NH2

What was measured:
Assay in all cases: cell-based or functional assay
glucagon receptor = glucagon receptor (UniProt P47871 26-477, limits assumed)
Sequence of glucagon receptor (P47871 26-477 limits assumed): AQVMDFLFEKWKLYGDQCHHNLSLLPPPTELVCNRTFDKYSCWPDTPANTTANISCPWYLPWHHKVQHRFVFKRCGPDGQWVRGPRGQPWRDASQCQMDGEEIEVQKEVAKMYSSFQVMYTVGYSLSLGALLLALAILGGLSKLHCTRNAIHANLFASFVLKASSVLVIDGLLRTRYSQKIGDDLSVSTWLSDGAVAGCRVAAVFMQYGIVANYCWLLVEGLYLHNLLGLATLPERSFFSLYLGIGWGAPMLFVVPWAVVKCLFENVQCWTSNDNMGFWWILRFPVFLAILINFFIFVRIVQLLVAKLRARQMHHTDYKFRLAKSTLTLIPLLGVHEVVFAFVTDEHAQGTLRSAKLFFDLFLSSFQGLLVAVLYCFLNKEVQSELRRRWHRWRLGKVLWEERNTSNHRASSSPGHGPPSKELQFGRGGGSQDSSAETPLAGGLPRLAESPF

GLP-1 receptor = GLP-1 receptor (UniProt P43220 24-463, limits assumed)
GIP receptor = target: T1, GIP receptor

Row | Binder | EC50 (nM) at glucagon receptor (glucagon receptor) [nM] | EC50 (nM) at GLP-1 receptor (GLP-1 receptor) [nM] | EC50 (nM) at GIP receptor (GIP receptor) [nM]
1 | B1 | 0.141 | 0.067 | 
2 | B2 | 0.563 | 0.487 | 465
3 | B3 | 4.5 | 0.054 | 
4 | B4 | 0.939 | 0.097 | 
5 | B5 | 4.34 | 0.108 | 
6 | B6 | 0.006 | 0.02 | 1.64
7 | B7 | 0.09 | 0.025 | 35.7
8 | B8 | 0.051 | 0.01 | 7.48
9 | B9 | 4.6 | 0.033 | 147
10 | B10 | 0.009 | 0.004 | 0.676
11 | B11 | 0.004 | 0.002 | 0.812
12 | B12 | 0.141 | 0.31 | 
13 | B13 | 0.852 | 1.28 | 
14 | B14 | 1.19 | 0.653 | 
15 | B15 | 0.309 | 0.074 | 
16 | B16 | 1.01 | 0.117 | 
17 | B17 | 0.02 | 0.011 | 
18 | B18 | 0.023 | 0.017 | 
19 | B19 | 0.651 | 1.44 | 
20 | B20 | 0.227 | 0.136 | 
21 | B21 | 0.591 | 0.052 | 
22 | B22 | 0.026 | 0.039 | 
23 | B23 | 0.063 | 0.01 | 
24 | B24 | 2.04 | 0.062 | 
